Experimental data from US20200079833A1 (AstraZeneca / MedImmune, published 2020).
Starred links: 1 amine or outer side, 2 acyl side, 3 side chain; linkers in the order of their positions; H or OH if unused. Non-standard residues stand in square brackets, D forms with d. Groups on a side chain read outwards from the residue. Primed or numbered codes have the meaning given here. No end group written: not given here. *: point of attachment. γGlu = O=C(O)[C@H](CCC(=O)[*:2])N[*:1]; Stearoyl = CCCCCCCCCCCCCCCCCC(=O)*; Palmitoyl = CCCCCCCCCCCCCCCC(=O)*; αMeF = C[C@](N)(Cc1ccccc1)C(=O)O; αMeK = C[C@](N)(CCCCN)C(=O)O; αMeS = C[C@](N)(CO)C(=O)O; PEG2′ = not defined here; Aib = CC(C)(N)C(=O)O

B1: SEQ ID NO 91 (peptide)
peptide: H[Aib]EGS[αMeF]TSK([γGlu-Palmitoyl])V[αMeS]S[αMeF]LEGEAA[αMeK]E[αMeF]IA[αMeF]VV[αMeK]GG-NH2
modifications: N-terminus assumed
SMILES: CCCCCCCCCCCCCCCC(=O)N[C@@H](CCC(=O)NCCCC[C@H](NC(=O)[C@H](CO)NC(=O)[C@@H](NC(=O)[C@](C)(Cc1ccccc1)NC(=O)[C@H](CO)NC(=O)CNC(=O)[C@H](CCC(=O)O)NC(=O)C(C)(C)NC(=O)[C@@H](N)Cc1c[nH]cn1)[C@@H](C)O)C(=O)N[C@H](C(=O)N[C@@](C)(CO)C(=O)N[C@@H](CO)C(=O)N[C@@](C)(Cc1ccccc1)C(=O)N[C@@H](CC(C)C)C(=O)N[C@@H](CCC(=O)O)C(=O)NCC(=O)N[C@@H](CCC(=O)O)C(=O)N[C@@H](C)C(=O)N[C@@H](C)C(=O)N[C@@](C)(CCCCN)C(=O)N[C@@H](CCC(=O)O)C(=O)N[C@@](C)(Cc1ccccc1)C(=O)N[C@H](C(=O)N[C@@H](C)C(=O)N[C@@](C)(Cc1ccccc1)C(=O)N[C@H](C(=O)N[C@H](C(=O)N[C@@](C)(CCCCN)C(=O)NCC(=O)NCC(N)=O)C(C)C)C(C)C)[C@@H](C)CC)C(C)C)C(=O)O
B2: SEQ ID NO 90 (peptide)
peptide: H[Aib]EGS[αMeF]TSDK([γGlu-Palmitoyl])[αMeS]S[αMeF]LEGEAA[αMeK]E[αMeF]IA[αMeF]VV[αMeK]GG-NH2
modifications: N-terminus assumed
SMILES: CCCCCCCCCCCCCCCC(=O)N[C@@H](CCC(=O)NCCCC[C@H](NC(=O)[C@H](CC(=O)O)NC(=O)[C@H](CO)NC(=O)[C@@H](NC(=O)[C@](C)(Cc1ccccc1)NC(=O)[C@H](CO)NC(=O)CNC(=O)[C@H](CCC(=O)O)NC(=O)C(C)(C)NC(=O)[C@@H](N)Cc1c[nH]cn1)[C@@H](C)O)C(=O)N[C@@](C)(CO)C(=O)N[C@@H](CO)C(=O)N[C@@](C)(Cc1ccccc1)C(=O)N[C@@H](CC(C)C)C(=O)N[C@@H](CCC(=O)O)C(=O)NCC(=O)N[C@@H](CCC(=O)O)C(=O)N[C@@H](C)C(=O)N[C@@H](C)C(=O)N[C@@](C)(CCCCN)C(=O)N[C@@H](CCC(=O)O)C(=O)N[C@@](C)(Cc1ccccc1)C(=O)N[C@H](C(=O)N[C@@H](C)C(=O)N[C@@](C)(Cc1ccccc1)C(=O)N[C@H](C(=O)N[C@H](C(=O)N[C@@](C)(CCCCN)C(=O)NCC(=O)NCC(N)=O)C(C)C)C(C)C)[C@@H](C)CC)C(=O)O

What follows are binders tested against T1, GLP-1R (INS1e assay) (UniProt P32301 22-463, limits assumed) (assay: cell-based or functional assay).
T1 sequence (looked up): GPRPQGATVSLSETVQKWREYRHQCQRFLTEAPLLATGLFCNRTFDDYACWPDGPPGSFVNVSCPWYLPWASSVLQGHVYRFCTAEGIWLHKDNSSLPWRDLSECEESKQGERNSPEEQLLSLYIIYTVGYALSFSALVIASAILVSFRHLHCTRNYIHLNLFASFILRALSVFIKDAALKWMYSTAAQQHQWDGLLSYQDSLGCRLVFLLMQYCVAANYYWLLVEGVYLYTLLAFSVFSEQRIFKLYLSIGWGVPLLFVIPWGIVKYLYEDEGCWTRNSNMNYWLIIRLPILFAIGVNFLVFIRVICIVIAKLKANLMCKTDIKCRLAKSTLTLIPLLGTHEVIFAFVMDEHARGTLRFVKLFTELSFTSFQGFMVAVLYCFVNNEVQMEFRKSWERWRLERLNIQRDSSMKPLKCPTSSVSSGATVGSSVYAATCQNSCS
With H[Aib]EGS[αMeF]TSDV[αMeS]S[αMeF]LEGEAA[αMeK]E[αMeF]IA[αMeF]VVK([PEG2′-PEG2′-γGlu-Stearoyl])GG-NH2 [SEQ ID NO 101] the “INS1e assay EC50 GLP-1 R n1” value was 1.47 nM, the “INS1e assay EC50 GLP-1 R n2” value was 6.65 nM and the “INS1e assay EC50 Mean pM GLP-1R” value was 4060 pM. H[Aib]EGS[αMeF]TSDV[αMeS]S[αMeF]LEGEAA[αMeK]E[αMeF]IA[αMeF]VV[αMeK]GK([PEG2′-PEG2′-γGlu-Stearoyl])-NH2 [SEQ ID NO 99] was tested, and the “INS1e assay EC50 GLP-1 R n1” value was 11 nM, the “INS1e assay EC50 GLP-1 R n2” value was 5.88 nM and the “INS1e assay EC50 Mean pM GLP-1R” value was 8440 pM. For H[Aib]EGS[αMeF]TSDV[αMeS]S[αMeF]LEGEAA[αMeK]E[αMeF]IA[αMeF]VK([PEG2′-PEG2′-γGlu-Stearoyl])[αMeK]GG-NH2 [SEQ ID NO 102], the “INS1e assay EC50 GLP-1 R n1” value was 4.22 nM, the “INS1e assay EC50 GLP-1 R n2” value was 2.89 nM and the “INS1e assay EC50 Mean pM GLP-1R” value was 3560 pM. With H[Aib]EGS[αMeF]TSDV[αMeS]S[αMeF]LEGEAK([PEG2′-PEG2′-γGlu-Stearoyl])[αMeK]E[αMeF]IA[αMeF]VV[αMeK]GG-NH2 [SEQ ID NO 110] the “INS1e assay EC50 GLP-1 R n1” value was 31.6 nM, the “INS1e assay EC50 GLP-1 R n2” value was 23.1 nM and the “INS1e assay EC50 Mean pM GLP-1R” value was 27400 pM. For H[Aib]EGS[αMeF]TSDV[αMeS]S[αMeF]LEGEAA[αMeK]EK([PEG2′-PEG2′-γGlu-Stearoyl])IA[αMeF]VV[αMeK]GG-NH2 [SEQ ID NO 107], the “INS1e assay EC50 GLP-1 R n1” value was 5.23 nM, the “INS1e assay EC50 GLP-1 R n2” value was 11.7 nM and the “INS1e assay EC50 Mean pM GLP-1R” value was 8460 pM. With B1 the “INS1e assay EC50 GLP-1 R n1” value was 1.93 nM, the “INS1e assay EC50 GLP-1 R n2” value was 3.5 nM and the “INS1e assay EC50 Mean pM GLP-1R” value was 2720 pM. In the case of H[Aib]EGS[αMeF]TSDV[αMeS]S[αMeF]LEGEAA[αMeK]E[αMeF]IK([PEG2′-PEG2′-γGlu-Stearoyl])[αMeF]VV[αMeK]GG-NH2 [SEQ ID NO 105], the “INS1e assay EC50 GLP-1 R n1” value is reported as 0.22 nM, the “INS1e assay EC50 GLP-1 R n2” value is reported as 1.72 nM and the “INS1e assay EC50 Mean pM GLP-1R” value is reported as 970 pM. H[Aib]EGS[αMeF]TSDV[αMeS]S[αMeF]LEGEAA[αMeK]K([PEG2′-PEG2′-γGlu-Stearoyl])[αMeF]IA[αMeF]VV[αMeK]GG-NH2 [SEQ ID NO 108] was tested, and the “INS1e assay EC50 GLP-1 R n1” value was 0.038 nM, the “INS1e assay EC50 GLP-1 R n2” value was 0.458 nM and the “INS1e assay EC50 Mean pM GLP-1R” value was 248 pM. For B2, the “INS1e assay EC50 GLP-1 R n1” value was 0.0434 nM, the “INS1e assay EC50 GLP-1 R n2” value was 0.0586 nM and the “INS1e assay EC50 Mean pM GLP-1R” value was 51 pM. With H[Aib]EGS[αMeF]TSDV[αMeS]S[αMeF]LEGEAA[αMeK]E[αMeF]IA[αMeF]VV[αMeK]K([PEG2′-PEG2′-γGlu-Stearoyl])G-NH2 [SEQ ID NO 100] the “INS1e assay EC50 GLP-1 R n1” value was 0.233 nM, the “INS1e assay EC50 GLP-1 R n2” value was 1.41 nM and the “INS1e assay EC50 Mean pM GLP-1R” value was 822 pM. H[Aib]EGS[αMeF]TSDV[αMeS]S[αMeF]LEGEAAK([PEG2′-PEG2′-γGlu-Palmitoyl])E[αMeF]IA[αMeF]VV[αMeK]GG-NH2 [SEQ ID NO 109] was tested, and the “INS1e assay EC50 GLP-1 R n1” value was 8.35 nM, the “INS1e assay EC50 GLP-1 R n2” value was 4.32 nM and the “INS1e assay EC50 Mean pM GLP-1R” value was 6340 pM. H[Aib]EGS[αMeF]TSDV[αMeS]S[αMeF]LEGEAA[αMeK]E[αMeF]IA[αMeF]K([PEG2′-PEG2′-γGlu-Stearoyl])V[αMeK]GG-NH2 [SEQ ID NO 103] was tested, and the “INS1e assay EC50 GLP-1 R n1” value was 0.428 nM, the “INS1e assay EC50 GLP-1 R n2” value was 0.59 nM and the “INS1e assay EC50 Mean pM GLP-1R” value was 509 pM. With H[Aib]EGS[αMeF]TSDV[αMeS]S[αMeF]LEGEAA[αMeK]E[αMeF]IAK([PEG2′-PEG2′-γGlu-Stearoyl])VV[αMeK]GG-NH2 [SEQ ID NO 104] the “INS1e assay EC50 GLP-1 R n1” value was 0.391 nM, the “INS1e assay EC50 GLP-1 R n2” value was 0.27 nM and the “INS1e assay EC50 Mean pM GLP-1R” value was 331 pM. For H[Aib]EGS[αMeF]TSDV[αMeS]S[αMeF]LEGEK([PEG2′-PEG2′-γGlu-Stearoyl])A[αMeK]E[αMeF]IA[αMeF]VV[αMeK]GG-NH2 [SEQ ID NO 111], the “INS1e assay EC50 GLP-1 R n1” value was 0.501 nM, the “INS1e assay EC50 GLP-1 R n2” value was 1.11 nM and the “INS1e assay EC50 Mean pM GLP-1R” value was 806 pM.
